This series can be described thus: yeast display, Sf9 membrane polyspecificity reagent, FACS + sequencing; frameworks hold sequencing errors. In a few lines: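 Synthetic nanobody libraries on Saccharomyces cerevisiae BJ5465 were galactose-induced for 36–48 hours, stained 1 hour at 4 °C with 10% biotinylated, detergent-solubilized Sf9 membrane reagent and enriched on streptavidin microbeads. FACS then separated cells into low and high (top ~1%) gates by anti-HA (expression) and streptavidin (reagent binding) fluorescence. Genes were colony-PCR amplified, MiSeq 2 × 250 sequenced and CDR-length filtered. A clone's polyreactivity label is that of its gate of origin.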
For the sequence “QVQLVESGGGLVQAGGSLRLSCAASGSTLYAYAMGWYRQAPGKERELVAGISSSGARTYYADSVKGRFTISRDNAKITVYLQMNSLKPEDTAVYYCAALAPVGTSKSYGYWGQGTQVTVSS”, the “polyreactivity (PSR sort gate)” value is “high polyreactivity”. In the case of “QVQLVESGGGLVQAGGSLRLSCAASGSTLYAYAMGWYRQAPGKERELVASIPAGGITHYADSVKGRVTISRDNANNTVYLHMISLKPEDTAVDYCNTVAYLRRFDKWGMNYWGQGTQVTVSS”, the “polyreactivity (PSR sort gate)” value was “low polyreactivity”.

In the case of “QVQLVESGGGLVQAGGSLRLSCAASGSTLYAYVMGWYRQAPGKERELVATISWSGGRTYYADSVKGRFTISRDNAKNTVYLQMNSLKPEDTAVYYCNARRRYSYVSRKFDYWGQGTQVTVSS”, the “polyreactivity (PSR sort gate)” value is “high polyreactivity”.

Take “QVQLVESGGGLVQAGGSLRLSCAASGSTLYFNAMGWYRQAPGKERELVATITSGGSTYYADSVKGRFTISRDNAKNTVYFQMNSLKPEDTAAYYCNADFGSYATNGLTPLYDYWGQGTQVTVSS”: the “polyreactivity (PSR sort gate)” value was “high polyreactivity”. To “QVQLVESGGGLVQAGGSLRLSCAASGSTLYGNVMGWYRQAPGKESELVATINRGGSTNYADSVKGRFTISRDNAKNTVYLQMNSLKPEDTAVYYCAARAFAWYYLEDYWGQGTQVTVSS” belongs “low polyreactivity”; to “QVQLVESGGGLVQAGGSLRLSCAASGSTLYIYVMGWYRQAPGKERELVAAIDSGDDTDYADSVKGRFTISRDNAKNTVYLQMNSLKPEVTAVYYCAAQKWYYPYYWGKGTQVTVSS”, “high polyreactivity”.

For the sequence “QVQLVESGGGLVQAGGSLRLSCAASGSTLYRNAMGWYRQAPGKERELVAAISSSGGTTFYADSVKGRFTISGDNAKNTVYLQMNCLKPEDSAVYYCIRTARKLRTVHSSVVGLDYWGQGTQVTVSS”, the “polyreactivity (PSR sort gate)” value is recorded as “low polyreactivity”. To “QVQLVESGGGLVQAGGSLRLSCAASGSTLYRYTMGWYRQAPGKERELVAAISSGGNTYYADSVKGRFTISRDNAKNTVYLQMNSLKPEDTAVYYCAAEDSVYIPYYDAFDYWGQGTQVTVSS” belongs “low polyreactivity”; to “QVQLVESGGGLVQAGGSLRLSCAASGSTLYTYAMGWYRQAPGKERELVAAIRLSGGRTYYADSVKGRFTISRDNAQNTVYLQMNSLKPEDTAVYYCAVDWSYSRYDYWGQGTQVTVSS”, “high polyreactivity”; to “QVQLVESGGGLVQAGGSLRLSCAASGSTLYTYAMGWYRQAPGKERELVATISWSGSSTYYADSVKGRFTISRDNAKNTVYLQMNSLKPEHTAVYYCAAPYHYWYRLDYWGQGTQVTVSS”, “high polyreactivity”.

Consider “QVQLVESGGGLVQAGGSLRLSCAASGSTLYYNAMGWFRQAPGKERELVARISRSGGSTYADSVKGRFTISRDNAKNTVYLQMNMLKRDDTAVYYCNADAYGTPEFTSYAVRYDYWGQGTQVTVSS”, for which the “polyreactivity (PSR sort gate)” value is given as “low polyreactivity”. The result for “QVQLVESGGGLVQAGGSLRLSCAASGSTLYYNAMGWYRKAPGKERELVADITSGGSTSYADSVKGRFTISRDNAKNTVYLQMNSLKPEDTAVYYCAAVFYRRFDYWGQGTQVTVSS” reads “low polyreactivity”. The result for “QVQLVESGGGLVQAGGSLRLSCAASGSTLYYNAMGWYRQAPGKERELVAAITSGGSTSYADSVKGRFTISRDNAKNTVYLQMNRLKPDDTAVYYCAAVFYRRFDYWGQGTQVTVSS” reads “low polyreactivity”; that for “QVQLVESGGGLVQAGGSLRLSCAASGSTQRFYAMGWYRQAPGKERELVAVISRGGSTYFADSVKGRFTISRDNAKNTVYLQMNSLKPEDTAVYYCAAYHRTSAARPIYDYWGQGTQVTVSS”, “low polyreactivity”. To “QVQLVESGGGLVQAGGSLRLSCAASGSTQRGYARGWYRQAPGKERELVASISRRGGSTYYADSVKGRFTISRDNAKNTVYLQMNSLKPEDTAVDYCAATGRRGYGYGYWGQGTQVTVSS” belongs “high polyreactivity”. With “QVQLVESGGGLVQAGGSLRLSCAASGSTRRYFKGWYRQAPGKERELVAVISRGGSTYYADSVKGRFTISGDNAKNTVYLQMNSLKPEDTAVYYCNVQPVIPRGGDYWGQGTQVTVSS”, the “polyreactivity (PSR sort gate)” value is on record as “high polyreactivity”. The result for “QVQLVESGGGLVQAGGSLRLSCAASGSTRYNAMGWYRQAPGKERELVASIRGNAGSTYYADSVKGRFTISRDNAKNTVYLQMNSLKPEDTAVYYCNARVLRYSCFHYDYCGQGTQVTVSS” reads “high polyreactivity”; that for “QVQLVESGGGLVQAGGSLRLSCAASGSTSDINAMGWYRQAPGKERELVAAISSSGGRTYYADSVKGRFTISRDNAKNTVYLQMNSLKPEDTAVYYCAADTYTSAQHEKYDYWGQGTQVTVSS”, “low polyreactivity”; that for “QVQLVESGGGLVQAGGSLRLSCAASGSTSDYYAMGWYRQAPGKERELVAAISWSGGSTYYADSVKGRFTISRDNAKNTVYLQMISLKPEDNAVYYCAAQHYNFSGPFEYWGQGTQVTVSS”, “low polyreactivity”. On to “QVQLVESGGGLVQAGGSLRLSCAASGSTSERYDMGWYRQAPGKERELVATITWSGGDTHYADSVKGRFTISRDNAKNTVYLQMNSLKPVDTAVYYCAAEYTFVWGLWYDYWGQGTQVTVSS”, for which the “polyreactivity (PSR sort gate)” value is reported as “low polyreactivity”. On to “QVQLVESGGGLVQAGGSLRLSCAASGSTSFTYMGWYRQAPGTEREVVAAIDESGGSTYYADSVKGRFTISRDNAKNTVYLQMNTLKPEDTAGYYCTRRYGRSYRWGNGYWGQGTQVTVSA”, for which the “polyreactivity (PSR sort gate)” value is given as “low polyreactivity”. The result for “QVQLVESGGGLVQAGGSLRLSCAASGSTSGIYAMGWYRQAHGKERELVAAIDTSGGSTYADSVKGRFTISRDNAKNTVYLQMNSLKPEETAVYYCAKPFSSNSWSHGYWGQGTQVTVSS” reads “low polyreactivity”; that for “QVQLVESGGGLVQAGGSLRLSCAASGSTSHYNAMGWYRQAPGKERELVASITWSGGSTYYADSVKGRFTISRDNAKNTVYLQMYSLKPEDTAVYYCNAQERRVRDYDYWGQGTQVTVSS”, “low polyreactivity”; that for “QVQLVESGGGLVQAGGSLRLSCAASGSTSLFYAMGWYRQAPGKERELVAGITNTARTYADSVKGRFTISRDNAKNTVYLQMKSLKPEDTAVYYCATGYNRWRPTFPFYYWGLGTQVTVSS”, “high polyreactivity”. Turning to “QVQLVESGGGLVQAGGSLRLSCAASGSTSLVNAMGWYRQAPGKERELVAAITRGGNTYYADSVKGRFTISRDNAKNTVYLQMNSLKPEDTAVYYCNVGQDALYRLEYWGQGTQVTVSS”, the “polyreactivity (PSR sort gate)” value was “low polyreactivity”. The result for “QVQLVESGGGLVQAGGSLRLSCAASGSTSLVYAMGWYRQAPGKERELVAAISWSGGSTYYADSVKGRFTISRDNAKNTVYLQMKSLKPEDTAVYYCAAEYYGYWEYDYWGQGTQVTVSS” reads “high polyreactivity”. The result for “QVQLVESGGGLVQAGGSLRLSCAASGSTSPRNAMGWYRQAPGKERELVAAISSGGRTNYAVSVKGRFTISRDNAKNTVYLQMNSLKPEDTAVYYCAAAVQSTYWGQGTQVTVSS” reads “low polyreactivity”; that for “QVQLVESGGGLVQAGGSLRLSCAASGSTSPVYAMGWYRQAPGKERELVAAISSSGSRTYYADSVKGRFTISRDNAKNTVYLQMNCLKPEDSAVYYCAADWWAWRAYYYWGQGTQVTVSS”, “high polyreactivity”; that for “QVQLVESGGGLVQAGGSLRLSCAASGSTSQPYAMGWYRQAPGKERELVASITNGGITYYADSVKGRFTISRDNAKNTVYLQMNSLKPEDTAVYYCNADNVFEGYDRRSARASYRYYYWGQGTQVTVSS”, “low polyreactivity”. To “QVQLVESGGGLVQAGGSLRLSCAASGSTSQSNAMGRYRQAPGKERELVAAISWSGTSTYYADSVKGRFTISRDNAKNTVYLQMNSLKPEDTAVYYCAADYIFDYDYWGQGTQVTVSS” belongs “low polyreactivity”. For the sequence “QVQLVESGGGLVQAGGSLRLSCAASGSTSRKYTMGWYRQAPGKERELVATISWSGGSTYYADSVKGRFTISRDNAKNTVYLQMNSLKPEDTAVYYCAAATKVRNLGSFESPGPEVDYWGQGTQVTVSS”, the “polyreactivity (PSR sort gate)” value was “high polyreactivity”. To “QVQLVESGGGLVQAGGSLRLSCAASGSTSRTYAMGWYRQAPGQEMELVAAISSSGGRTYYADSVKGRFTISRDTAKNTVYLEMNSLKPEDTAVYYCNARTYSYRGYNYWGQGTQVTVSS” belongs “high polyreactivity”; to “QVQLVESGGGLVQAGGSLRLSCAASGSTSRYAMGWYRQAPGKERELVAAITRSGGTTYYADSVKGRYTISRDNAKNTVYLQMNSLKPEDTAVYYCATSDRQVKYDYWGQGTQVTVSS”, “low polyreactivity”. The result for “QVQLVESGGGLVQAGGSLRLSCAASGSTSSNNAMGWYRQAPGKEREFVADISSRGGSTYYADSVKGRFTISRDNAKNTVYLQMNSLKPEDTAVYYCARTRFWLRYRLFDYWGQGTHVTVSS” reads “low polyreactivity”. Turning to “QVQLVESGGGLVQAGGSLRLSCAASGSTSSVYAIGWYRQAPGKEREFVASITRRTGITFYADSVKGRFTISRDHAKNTVYLQMNSLKPEDTAVYYCAADFSGSVDYWGQGTQVTVSS”, the “polyreactivity (PSR sort gate)” value is on record as “high polyreactivity”. The result for “QVQLVESGGGLVQAGGSLRLSCAASGSTSTTYTMGWYRQAPGKERELVAAISYSGGSTYYADSVKGRFTISRDNAKHTVYLQMNSLKPEDTAVYYCAAQSFVGWREYESWGQGTQVTVSS” reads “high polyreactivity”; that for “QVQLVESGGGLVQAGGSLRLSCAASGSTSTYYAMGWYRQAPGKERELVAAITLGAGRTYADSVKGRFTISRDNAKNTVYLQMNSLKPEDTAVYYCAADSHIDHGKWAYDYWGQGTQVTVSS”, “low polyreactivity”; that for “QVQLVESGGGLVQAGGSLRLSCAASGSTSVINAMGGNRQAPGKERELVAGISGSGGSTYYADSVKGRFTISRDNAKNTVYLLMNSLKPEDTAVYYCAKRFYRPVPGGYYWGQGTQVTVSS”, “high polyreactivity”.

As for “QVQLVESGGGLVQAGGSLRLSCAASGSTSVVNAMGWYRQAPGKERELVAAISTGGASTYYADSVKGRFTISRDNAKNTVYLQMNSLNPEDTAVYYCAADLGYEYDYWGQGTQVTVSS”, the “polyreactivity (PSR sort gate)” value is “high polyreactivity”. The result for “QVQLVESGGGLVQAGGSLRLSCAASGSTSVYYAMGWYRQTPGKERELVAAINWNGGRTYYADSVKGRFTISRDNAKNTVYLQMNSLKPEDTAVYYCATDSGDGEGDYWGQGTQVTVSS” reads “low polyreactivity”; that for “QVQLVESGGGLVQAGGSLRLSCAASGSTSWRNTMGWYRQAPGKERELVAAIRNVGSTYYADSVKGLFTISRDNAKNTVYLQMNSLKPEDTAVYYCNARWRFLYDYWGQGTQVTVSS”, “high polyreactivity”.

Values taken from the nanobody polyreactivity screen of Harvey et al. (2022).
